Data: patent publication US10941182 (Amgen, dated 2021)
Starred links: 1 amine or outer side, 2 acyl side, 3 side chain; linkers in the order of their positions; H or OH if unused. Non-standard residues stand in square brackets, D forms with d. Primed or numbered codes have the meaning given here. *: point of attachment. NPipG = 2-(piperidin-4-ylamino)acetic acid, O=C(CN(C1CCN([*:3])CC1)[*:1])[*:2]; AC4Abu = α-carboxy-4-aminobutyric acid, O=C(C(CCN[*:1])C(=O)[*:3])[*:2]; Bip = N[C@@H](Cc1ccc(-c2ccccc2)cc1)C(=O)O; Oic = O=C(O)[C@@H]1C[C@@H]2CCCC[C@@H]2N1; Phe(4-Cl) = N[C@@H](Cc1ccc(Cl)cc1)C(=O)O; Phe(4-F) = N[C@@H](Cc1ccc(F)cc1)C(=O)O; γGlu = O=C(O)[C@H](CCC(=O)[*:2])N[*:1]; d(β3hF) = N[C@@H](CC(=O)O)Cc1ccccc1; Igl = N[C@H](C(=O)O)C1Cc2ccccc2C1; NMeR = CN[C@@H](CCCNC(=N)N)C(=O)O; Palmitoyl = CCCCCCCCCCCCCCCC(=O)*; hArg = N=C(N)NCCCC[C@H](N)C(=O)O; 3Pal = N[C@@H](Cc1cccnc1)C(=O)O; Cha = N[C@@H](CC1CCCCC1)C(=O)O; αMeL = CC(C)C[C@](C)(N)C(=O)O; αMeOrn = C[C@](N)(CCCN)C(=O)O; β3hP = O=C(O)C[C@@H]1CCCN1; αMeS = C[C@](N)(CO)C(=O)O; Nle = CCCC[C@H](N)C(=O)O; Orn = NCCC[C@H](N)C(=O)O; Dab = NCC[C@H](N)C(=O)O; Pip′ = not defined here; Dap = NC[C@H](N)C(=O)O; AEEA = NCCOCCOCC(=O)O; Aib = CC(C)(N)C(=O)O; BLeu = β-leucine; Sar = CNCC(=O)O

B1: SEQ ID NO: 635 (peptide)
peptide: Palmitoyl-[γGlu][AEEA][AEEA][dQ]RP[NMeR][αMeL]SH[αMeOrn]G[Oic][Nle][β3hP][Phe(4-Cl)]-OH
SMILES: CCCCCCCCCCCCCCCC(=O)N[C@@H](CCC(=O)NCCOCCOCC(=O)NCCOCCOCC(=O)N[C@H](CCC(N)=O)C(=O)N[C@@H](CCCNC(=N)N)C(=O)N1CCC[C@H]1C(=O)N(C)[C@@H](CCCNC(=N)N)C(=O)N[C@@](C)(CC(C)C)C(=O)N[C@@H](CO)C(=O)N[C@@H](Cc1c[nH]cn1)C(=O)N[C@@](C)(CCCN)C(=O)NCC(=O)N1[C@H](C(=O)N[C@@H](CCCC)C(=O)N2CCC[C@H]2CC(=O)N[C@@H](Cc2ccc(Cl)cc2)C(=O)O)C[C@@H]2CCCC[C@@H]21)C(=O)O
B2: SEQ ID NO: 634 (peptide)
peptide: Palmitoyl-[γGlu][AEEA][AEEA][dQ]RP[NMeR][αMeL]SH[Orn]G[Oic][Nle][β3hP][Phe(4-Cl)]-OH
SMILES: CCCCCCCCCCCCCCCC(=O)N[C@@H](CCC(=O)NCCOCCOCC(=O)NCCOCCOCC(=O)N[C@H](CCC(N)=O)C(=O)N[C@@H](CCCNC(=N)N)C(=O)N1CCC[C@H]1C(=O)N(C)[C@@H](CCCNC(=N)N)C(=O)N[C@@](C)(CC(C)C)C(=O)N[C@@H](CO)C(=O)N[C@@H](Cc1c[nH]cn1)C(=O)N[C@@H](CCCN)C(=O)NCC(=O)N1[C@H](C(=O)N[C@@H](CCCC)C(=O)N2CCC[C@H]2CC(=O)N[C@@H](Cc2ccc(Cl)cc2)C(=O)O)C[C@@H]2CCCC[C@@H]21)C(=O)O
B3: SEQ ID NO: 632 (peptide)
peptide: Palmitoyl-[γGlu][AEEA][AEEA][dQ]RP[NMeR][αMeL]SH[NPipG]G[Oic][Nle][β3hP][Phe(4-Cl)]-OH
SMILES: CCCCCCCCCCCCCCCC(=O)N[C@@H](CCC(=O)NCCOCCOCC(=O)NCCOCCOCC(=O)N[C@H](CCC(N)=O)C(=O)N[C@@H](CCCNC(=N)N)C(=O)N1CCC[C@H]1C(=O)N(C)[C@@H](CCCNC(=N)N)C(=O)N[C@@](C)(CC(C)C)C(=O)N[C@@H](CO)C(=O)N[C@@H](Cc1c[nH]cn1)C(=O)N(CC(=O)NCC(=O)N1[C@H](C(=O)N[C@@H](CCCC)C(=O)N2CCC[C@H]2CC(=O)N[C@@H](Cc2ccc(Cl)cc2)C(=O)O)C[C@@H]2CCCC[C@@H]21)C1CCNCC1)C(=O)O
B4: SEQ ID NO: 629 (peptide)
peptide: Palmitoyl-[γGlu][AEEA][AEEA][dQ]RP[NMeR][αMeL]S[Bip]KG[Oic][Nle][β3hP][Phe(4-Cl)]-OH
SMILES: CCCCCCCCCCCCCCCC(=O)N[C@@H](CCC(=O)NCCOCCOCC(=O)NCCOCCOCC(=O)N[C@H](CCC(N)=O)C(=O)N[C@@H](CCCNC(=N)N)C(=O)N1CCC[C@H]1C(=O)N(C)[C@@H](CCCNC(=N)N)C(=O)N[C@@](C)(CC(C)C)C(=O)N[C@@H](CO)C(=O)N[C@@H](Cc1ccc(-c2ccccc2)cc1)C(=O)N[C@@H](CCCCN)C(=O)NCC(=O)N1[C@H](C(=O)N[C@@H](CCCC)C(=O)N2CCC[C@H]2CC(=O)N[C@@H](Cc2ccc(Cl)cc2)C(=O)O)C[C@@H]2CCCC[C@@H]21)C(=O)O
B5: SEQ ID NO: 614 (peptide)
peptide: Palmitoyl-[γGlu][AEEA][AEEA][dQ][hArg]P[dR][Cha]SHKG[Oic][Nle]P[d(β3hF)]-OH
SMILES: CCCCCCCCCCCCCCCC(=O)N[C@@H](CCC(=O)NCCOCCOCC(=O)NCCOCCOCC(=O)N[C@H](CCC(N)=O)C(=O)N[C@@H](CCCCNC(=N)N)C(=O)N1CCC[C@H]1C(=O)N[C@H](CCCNC(=N)N)C(=O)N[C@@H](CC1CCCCC1)C(=O)N[C@@H](CO)C(=O)N[C@@H](Cc1c[nH]cn1)C(=O)N[C@@H](CCCCN)C(=O)NCC(=O)N1[C@H](C(=O)N[C@@H](CCCC)C(=O)N2CCC[C@H]2C(=O)N[C@@H](CC(=O)O)Cc2ccccc2)C[C@@H]2CCCC[C@@H]21)C(=O)O
B6: SEQ ID NO: 627 (peptide)
peptide: Palmitoyl-[γGlu][AEEA][AEEA][dQ]RP[NMeR][αMeL][αMeS]HKG[Oic][Nle][β3hP][Phe(4-Cl)]-OH
SMILES: CCCCCCCCCCCCCCCC(=O)N[C@@H](CCC(=O)NCCOCCOCC(=O)NCCOCCOCC(=O)N[C@H](CCC(N)=O)C(=O)N[C@@H](CCCNC(=N)N)C(=O)N1CCC[C@H]1C(=O)N(C)[C@@H](CCCNC(=N)N)C(=O)N[C@@](C)(CC(C)C)C(=O)N[C@@](C)(CO)C(=O)N[C@@H](Cc1c[nH]cn1)C(=O)N[C@@H](CCCCN)C(=O)NCC(=O)N1[C@H](C(=O)N[C@@H](CCCC)C(=O)N2CCC[C@H]2CC(=O)N[C@@H](Cc2ccc(Cl)cc2)C(=O)O)C[C@@H]2CCCC[C@@H]21)C(=O)O
B7: SEQ ID NO: 636 (peptide)
peptide: Palmitoyl-[γGlu][AEEA][AEEA][dQ]RP[NMeR][αMeL]SH[3Pal]G[Oic][Nle][β3hP][Phe(4-Cl)]-OH
SMILES: CCCCCCCCCCCCCCCC(=O)N[C@@H](CCC(=O)NCCOCCOCC(=O)NCCOCCOCC(=O)N[C@H](CCC(N)=O)C(=O)N[C@@H](CCCNC(=N)N)C(=O)N1CCC[C@H]1C(=O)N(C)[C@@H](CCCNC(=N)N)C(=O)N[C@@](C)(CC(C)C)C(=O)N[C@@H](CO)C(=O)N[C@@H](Cc1c[nH]cn1)C(=O)N[C@@H](Cc1cccnc1)C(=O)NCC(=O)N1[C@H](C(=O)N[C@@H](CCCC)C(=O)N2CCC[C@H]2CC(=O)N[C@@H](Cc2ccc(Cl)cc2)C(=O)O)C[C@@H]2CCCC[C@@H]21)C(=O)O

What was measured:
human APJ receptor = molecular target: T1, human APJ receptor (human, UniProt P35414 1-380); test: cell-based or functional assay
T1 sequence (looked up): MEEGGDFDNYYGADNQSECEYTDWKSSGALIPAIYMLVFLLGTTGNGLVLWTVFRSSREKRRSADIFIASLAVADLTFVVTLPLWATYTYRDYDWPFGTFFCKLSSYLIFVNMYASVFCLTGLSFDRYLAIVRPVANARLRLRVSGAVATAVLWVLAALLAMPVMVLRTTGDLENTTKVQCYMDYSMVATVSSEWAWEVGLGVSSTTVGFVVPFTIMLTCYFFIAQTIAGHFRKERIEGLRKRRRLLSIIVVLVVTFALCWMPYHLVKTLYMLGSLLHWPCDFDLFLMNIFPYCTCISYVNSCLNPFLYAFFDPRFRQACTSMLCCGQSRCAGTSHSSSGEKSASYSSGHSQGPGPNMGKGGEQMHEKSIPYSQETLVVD

rat APJ receptor = molecular target: T2, rat APJ receptor (rat, UniProt Q9JHG3 1-377); test: cell-based or functional assay
T2 sequence (looked up): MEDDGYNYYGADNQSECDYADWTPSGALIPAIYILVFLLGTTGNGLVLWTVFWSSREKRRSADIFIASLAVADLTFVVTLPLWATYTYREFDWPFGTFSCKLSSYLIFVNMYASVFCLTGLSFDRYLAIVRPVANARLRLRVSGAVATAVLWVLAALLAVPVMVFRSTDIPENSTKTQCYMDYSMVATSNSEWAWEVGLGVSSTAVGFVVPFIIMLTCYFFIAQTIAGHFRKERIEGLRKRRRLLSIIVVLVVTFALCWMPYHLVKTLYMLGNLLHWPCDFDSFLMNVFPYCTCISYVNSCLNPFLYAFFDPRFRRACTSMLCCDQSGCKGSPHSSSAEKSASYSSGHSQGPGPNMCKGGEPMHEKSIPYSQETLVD

Binder	EC50 Human APJ Receptor (human APJ receptor)	EC50 Rat APJ Receptor (rat APJ receptor)
B1	1.62 nM	6.64 nM
Palmitoyl-[γGlu][AEEA][AEEA][dQ]RP[NMeR][αMeL]SH[Phe(4-F)]G[Oic][Nle][β3hP][Phe(4-Cl)]-OH [SEQ ID NO: 637]	4.05 nM	14.2 nM
B2	0.164 nM	2.21 nM
XXXQRPRLSHKGPXPF ({HexDDA}[AC4Abu][Aeea][Aeea]QRP[NMeArg]LSHKGP[Nle]P[4-Cl-F]{COOH}) [SEQ ID NO: 512]	0.658 nM	4.59 nM
Palmitoyl-[AC4Abu][AEEA][AEEA][dQ]RP[NMeR][αMeL]SH[Igl]G[Oic][Nle][β3hP][Phe(4-Cl)]-OH [SEQ ID NO: 640]	4.03 nM	25.2 nM
B3	3.02 nM	22 nM
Palmitoyl-[γGlu][AEEA][AEEA][dQ]RP[NMeR][αMeL]SHKG[Oic][Nle][β3hP][Phe(4-Cl)]-OH (not fully specified (residue 10)) [SEQ ID NO: 631]	0.338 nM	0.699 nM
XXXQRPRLSHKGPMPF ({ODDA}[AC4Abu][Aeea][Aeea]QRPRLSHKGPMPF{COOH}) [SEQ ID NO: 290]	40.1 nM	173 nM
B4	2.45 nM	5.3 nM
Palmitoyl-[γGlu][AEEA][AEEA][dQ]RP[NMeR][αMeL]SH[Dap]G[Oic][Nle][β3hP][Phe(4-Cl)]-OH [SEQ ID NO: 639]	3.28 nM	15.4 nM
Palmitoyl-[AC4Abu][AEEA][AEEA][dQ][NPipG]P[NMeR][Cha]SHKG[Pip′][Nle][Aib][Phe(4-Cl)]-OH [SEQ ID NO: 646]	0.27 nM	0.994 nM
Palmitoyl-[AC4Abu][AEEA][AEEA][dQ]RP[NMeR][αMeL]SHK[Sar][Oic][Nle][β3hP][Phe(4-Cl)]-OH [SEQ ID NO: 641]	0.58 nM	3.66 nM
B5	1.25 nM	10.3 nM
Palmitoyl-[γGlu][AEEA][AEEA][dQ]RP[NMeR][αMeL][BLeu]HKG[Oic][Nle][β3hP][Phe(4-Cl)]-OH [SEQ ID NO: 628]	0.309 nM	0.773 nM
Palmitoyl-[γGlu][AEEA][AEEA][dQ]RP[NMeR][αMeL]SH[Dab]G[Oic][Nle][β3hP][Phe(4-Cl)]-OH [SEQ ID NO: 638]	3.2 nM	9.32 nM
XXXQRPRLSHKGPXPF ({Oc}[AC4Abu][Aeea][Aeea]QRP[NMeArg]LSHKGP[Nle]P[4-Cl-F]{COOH}) [SEQ ID NO: 493]	0.12 nM	0.647 nM
B6	0.244 nM	0.641 nM
B7	1.59 nM	3.65 nM
